In publication PMC2756588:

T1: Abp1, P15891
T1 sequence (P15891 535-592, looked up): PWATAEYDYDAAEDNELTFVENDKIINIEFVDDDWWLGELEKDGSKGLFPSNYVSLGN

T2: Lsb3, P43603
T2 sequence (P43603 385-451, looked up): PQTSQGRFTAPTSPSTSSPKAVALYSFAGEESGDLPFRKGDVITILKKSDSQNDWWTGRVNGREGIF

T3: Pex13, P80667
T3 sequence (P80667 295-386, looked up): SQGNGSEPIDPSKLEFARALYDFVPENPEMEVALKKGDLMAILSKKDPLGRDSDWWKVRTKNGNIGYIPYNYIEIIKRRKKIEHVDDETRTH

T4: Bzz1-1, P38822
T4 sequence (P38822 478-572, looked up): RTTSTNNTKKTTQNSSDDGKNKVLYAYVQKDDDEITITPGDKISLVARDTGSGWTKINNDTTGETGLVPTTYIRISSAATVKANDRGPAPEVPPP

T5: Sla1-2, P32790
T5 sequence (P32790 60-140, looked up): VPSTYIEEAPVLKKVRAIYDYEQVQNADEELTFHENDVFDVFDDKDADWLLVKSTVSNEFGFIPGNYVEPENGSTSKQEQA

T6: Fus1, P11710
T6 sequence (P11710 432-512, looked up): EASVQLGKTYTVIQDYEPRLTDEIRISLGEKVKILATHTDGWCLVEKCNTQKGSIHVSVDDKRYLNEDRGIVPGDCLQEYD

T7: Lsb1, P53281
T7 sequence (P53281 45-122, looked up): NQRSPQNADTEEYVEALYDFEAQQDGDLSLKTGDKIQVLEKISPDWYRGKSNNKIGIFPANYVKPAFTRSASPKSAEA

T8: Myo5, Q04439
T8 sequence (Q04439 1072-1160, looked up): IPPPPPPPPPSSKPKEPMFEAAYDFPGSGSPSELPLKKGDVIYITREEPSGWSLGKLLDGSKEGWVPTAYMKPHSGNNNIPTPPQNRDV

T9: Boi2, P39969
T9 sequence (P39969 32-116, looked up): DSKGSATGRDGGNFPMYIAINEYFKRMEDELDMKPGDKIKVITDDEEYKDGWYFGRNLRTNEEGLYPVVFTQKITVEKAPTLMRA

T10: Hse1, P38753
T10 sequence (P38753 208-285, looked up): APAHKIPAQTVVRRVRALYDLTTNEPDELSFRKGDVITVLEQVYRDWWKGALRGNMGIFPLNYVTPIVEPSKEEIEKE

T11: Sla1-3, P32790
T11 sequence (P32790 344-424, looked up): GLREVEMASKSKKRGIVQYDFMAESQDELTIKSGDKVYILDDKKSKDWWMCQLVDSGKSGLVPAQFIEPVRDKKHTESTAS

T12: Hof1, Q05080
T12 sequence (Q05080 590-669, looked up): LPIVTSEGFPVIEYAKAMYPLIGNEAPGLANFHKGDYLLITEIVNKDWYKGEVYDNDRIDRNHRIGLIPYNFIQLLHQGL

T13: Bzz1-2, P38822
T13 sequence (P38822 568-633, looked up): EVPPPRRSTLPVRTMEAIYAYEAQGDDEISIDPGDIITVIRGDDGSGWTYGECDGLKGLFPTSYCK

T14: Cyk3, Q07533
T14 sequence (Q07533 1-83, looked up): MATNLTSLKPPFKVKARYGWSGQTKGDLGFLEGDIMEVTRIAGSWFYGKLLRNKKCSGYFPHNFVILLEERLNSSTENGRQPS

T15: Lsb4, P32793
T15 sequence (P32793 402-468, looked up): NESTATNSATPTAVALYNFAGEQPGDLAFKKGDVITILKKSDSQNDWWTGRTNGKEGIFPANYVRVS

T16: Bbc1, P47068
T16 sequence (P47068 1-78, looked up): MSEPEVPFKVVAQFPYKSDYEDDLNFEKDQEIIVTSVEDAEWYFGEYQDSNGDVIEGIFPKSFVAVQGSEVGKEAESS

T17: Pin3, Q06449
T17 sequence (Q06449 53-122, looked up): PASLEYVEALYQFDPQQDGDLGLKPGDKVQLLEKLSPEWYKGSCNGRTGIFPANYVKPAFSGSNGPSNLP

T18: Cdc25, P04821
T18 sequence (P04821 50-136, looked up): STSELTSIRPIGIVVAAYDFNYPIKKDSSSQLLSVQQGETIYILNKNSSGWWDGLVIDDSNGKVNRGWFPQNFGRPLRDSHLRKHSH

T19: Bud14, P27637
T19 sequence (P27637 247-328, looked up): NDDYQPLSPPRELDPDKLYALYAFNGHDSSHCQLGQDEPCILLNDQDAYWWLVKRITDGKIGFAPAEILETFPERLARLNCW

T20: Nbp2, Q12163
T20 sequence (Q12163 103-180, looked up): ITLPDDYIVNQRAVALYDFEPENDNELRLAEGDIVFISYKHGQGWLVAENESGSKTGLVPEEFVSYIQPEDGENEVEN

T21: Boi1, P38041
T21 sequence (P38041 1-86, looked up): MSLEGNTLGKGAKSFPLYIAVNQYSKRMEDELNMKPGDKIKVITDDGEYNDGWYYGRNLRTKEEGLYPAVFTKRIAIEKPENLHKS

B1: unnamed (peptide)
chain: QTMRQAPKRPDADVA
B2: unnamed (peptide)
chain: TSIEIPKRSPLRFTS
B3: unnamed (peptide)
chain: NSMRPPLLIPAATTK
B4: unnamed (peptide)
chain: PKMLPIPSKPTLFDL
B5: unnamed (peptide)
chain: VFQFQMPTTPISTKM
B6: unnamed (peptide)
chain: PSTMDFPKLPSFQNS

molecular target: T1, Abp1, P15891; experiment: SPOT array; settings: median of control spots 935

Row | Binder | SPOT intensity
1 | B1 | 81
2 | B2 | 60
3 | B3 | 87
4 | B4 | 173
5 | B5 | 32
6 | B6 | 99

molecular target: T2, Lsb3, P43603; experiment: SPOT array; settings: median of control spots 406

Row | Binder | SPOT intensity
7 | B1 | 60
8 | B2 | 5
9 | B3 | 25
10 | B4 | 15
11 | B5 | 14
12 | B6 | 21

molecular target: T3, Pex13, P80667; experiment: SPOT array; settings: median of control spots 1341

Row | Binder | SPOT intensity
13 | B1 | 73
14 | B2 | 19
15 | B3 | 47
16 | B4 | 52
17 | B5 | 219
18 | B6 | 35

molecular target: Bem1-2, P29366; experiment: SPOT array; settings: median of control spots 4347
Sequence (P29366 139-227): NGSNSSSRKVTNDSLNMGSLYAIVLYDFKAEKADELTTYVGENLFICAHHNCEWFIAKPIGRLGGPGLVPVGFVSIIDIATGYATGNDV

Row | Binder | SPOT intensity
19 | B1 | 65
20 | B2 | 0
21 | B3 | 6
22 | B4 | 0
23 | B5 | 5
24 | B6 | 8

molecular target: T4, Bzz1-1, P38822; experiment: SPOT array; settings: median of control spots 4446

Row | Binder | SPOT intensity
25 | B1 | 0
26 | B2 | 0
27 | B3 | 0
28 | B4 | 0
29 | B5 | 1
30 | B6 | 0

molecular target: T5, Sla1-2, P32790; experiment: SPOT array; settings: median of control spots 712

Row | Binder | SPOT intensity
31 | B1 | 19
32 | B2 | 792
33 | B3 | 6
34 | B4 | 3
35 | B5 | 7
36 | B6 | 7

molecular target: T6, Fus1, P11710; experiment: SPOT array; settings: median of control spots 1200

Row | Binder | SPOT intensity
37 | B1 | 0
38 | B2 | 0
39 | B3 | 0
40 | B4 | 0
41 | B5 | 0
42 | B6 | 0

molecular target: T7, Lsb1, P53281; experiment: SPOT array; settings: median of control spots 388

Row | Binder | SPOT intensity
43 | B1 | 211
44 | B2 | 0
45 | B3 | 387
46 | B4 | 2
47 | B5 | 1
48 | B6 | 44

molecular target: T8, Myo5, Q04439; experiment: SPOT array; settings: median of control spots 471

Row | Binder | SPOT intensity
49 | B1 | 103
50 | B2 | 2
51 | B3 | 65
52 | B4 | 52
53 | B5 | 74
54 | B6 | 77

molecular target: T9, Boi2, P39969; experiment: SPOT array; settings: median of control spots 1161

Row | Binder | SPOT intensity
55 | B1 | 0
56 | B2 | 2740
57 | B3 | 0
58 | B4 | 0
59 | B5 | 0
60 | B6 | 0

molecular target: T10, Hse1, P38753; experiment: SPOT array; settings: median of control spots 1727

Row | Binder | SPOT intensity
61 | B1 | 1
62 | B2 | 0
63 | B3 | 5
64 | B4 | 0
65 | B5 | 0
66 | B6 | 0

molecular target: T11, Sla1-3, P32790; experiment: SPOT array; settings: median of control spots 5475

Row | Binder | SPOT intensity
67 | B1 | 42
68 | B2 | 0
69 | B3 | 0
70 | B4 | 0
71 | B5 | 0
72 | B6 | 0

molecular target: T12, Hof1, Q05080; experiment: SPOT array; settings: median of control spots 4086

Row | Binder | SPOT intensity
73 | B1 | 0
74 | B2 | 0
75 | B3 | 2
76 | B4 | 0
77 | B5 | 0
78 | B6 | 307

molecular target: T13, Bzz1-2, P38822; experiment: SPOT array; settings: median of control spots 4538

Row | Binder | SPOT intensity
79 | B1 | 28
80 | B2 | 0
81 | B3 | 0
82 | B4 | 0
83 | B5 | 0
84 | B6 | 0

molecular target: T14, Cyk3, Q07533; experiment: SPOT array; settings: median of control spots 1451

Row | Binder | SPOT intensity
85 | B1 | 0
86 | B2 | 0
87 | B3 | 0
88 | B4 | 0
89 | B5 | 0
90 | B6 | 2

molecular target: T15, Lsb4, P32793; experiment: SPOT array; settings: median of control spots 397

Row | Binder | SPOT intensity
91 | B1 | 115
92 | B2 | 8
93 | B3 | 87
94 | B4 | 42
95 | B5 | 39
96 | B6 | 67

molecular target: GST; experiment: SPOT array; settings: median of control spots 978

Row | Binder | SPOT intensity
97 | B1 | 1
98 | B2 | 0
99 | B3 | 1
100 | B4 | 1
101 | B5 | 0
102 | B6 | 0

molecular target: T16, Bbc1, P47068; experiment: SPOT array; settings: median of control spots 796

Row | Binder | SPOT intensity
103 | B1 | 90
104 | B2 | 12
105 | B3 | 0
106 | B4 | 0
107 | B5 | 0
108 | B6 | 0

molecular target: T17, Pin3, Q06449; experiment: SPOT array; settings: median of control spots 2171

Row | Binder | SPOT intensity
109 | B1 | 61
110 | B2 | 10
111 | B3 | 40
112 | B4 | 69
113 | B5 | 125
114 | B6 | 54

molecular target: T18, Cdc25, P04821; experiment: SPOT array; settings: median of control spots 969

Row | Binder | SPOT intensity
115 | B1 | 0
116 | B2 | 13
117 | B3 | 37
118 | B4 | 0
119 | B5 | 0
120 | B6 | 0

molecular target: Bem1-1, P29366; experiment: SPOT array; settings: median of control spots 4282
Sequence (P29366 55-141): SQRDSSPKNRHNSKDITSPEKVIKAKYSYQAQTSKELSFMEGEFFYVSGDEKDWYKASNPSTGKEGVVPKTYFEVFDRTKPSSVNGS

Row | Binder | SPOT intensity
121 | B1 | 1
122 | B2 | 0
123 | B3 | 5
124 | B4 | 0
125 | B5 | 0
126 | B6 | 0

molecular target: Myo3, P36006; experiment: SPOT array; settings: median of control spots 468

Row | Binder | SPOT intensity
127 | B1 | 44
128 | B2 | 4
129 | B3 | 40
130 | B4 | 36
131 | B5 | 32
132 | B6 | 51

molecular target: Sho1, P40073; experiment: SPOT array; settings: median of control spots 1148
Sequence (P40073 287-367): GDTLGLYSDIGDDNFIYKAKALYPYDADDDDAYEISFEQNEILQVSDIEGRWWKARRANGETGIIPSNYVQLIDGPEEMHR

Row | Binder | SPOT intensity
133 | B1 | 21
134 | B2 | 8
135 | B3 | 39
136 | B4 | 164
137 | B5 | 46
138 | B6 | 25

molecular target: T19, Bud14, P27637; experiment: SPOT array; settings: median of control spots 956

Row | Binder | SPOT intensity
139 | B1 | 0
140 | B2 | 5
141 | B3 | 13
142 | B4 | 0
143 | B5 | 0
144 | B6 | 1

molecular target: Rvs167, P39743; experiment: SPOT array; settings: median of control spots 2707
Sequence (P39743 419-482): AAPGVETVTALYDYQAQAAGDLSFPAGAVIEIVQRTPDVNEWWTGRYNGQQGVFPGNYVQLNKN

Row | Binder | SPOT intensity
145 | B1 | 10
146 | B2 | 0
147 | B3 | 0
148 | B4 | 0
149 | B5 | 0
150 | B6 | 2

molecular target: T20, Nbp2, Q12163; experiment: SPOT array; settings: median of control spots 357

Row | Binder | SPOT intensity
151 | B1 | 989
152 | B2 | 0
153 | B3 | 9
154 | B4 | 19
155 | B5 | 3
156 | B6 | 57

molecular target: T21, Boi1, P38041; experiment: SPOT array; settings: median of control spots 1162

Row | Binder | SPOT intensity
157 | B1 | 0
158 | B2 | 3040
159 | B3 | 0
160 | B4 | 0
161 | B5 | 0
162 | B6 | 0
